Experimental data as given in patent US20250002564A1 (HOSPITAL FOR SICK CHILDREN, published 2025).
Like-named read-outs stand apart in the source and are kept apart here.

Columns and labels:
[1] = molecular target: T1, SARS-CoV-2 receptor binding domain (RBD), wild type, His-tagged (SARS-CoV-2, UniProt P0DTC2 319-541); test: method and format not given
T1 construct: domain: RBD; also called His-tagged RBD; BEI NR52309

[2] = molecular target: T1, SARS-CoV-2 receptor binding domain …; test: method and format not given; remark: listed apart in the source
[3] = molecular target: T1, SARS-CoV-2 receptor binding domain …; test: BLI competition on His-tagged RBD, after 1st Ab 236
[4] = molecular target: T1, SARS-CoV-2 receptor binding domain …; test: BLI competition on His-tagged RBD, after 1st Ab 52
[5] = molecular target: T1, SARS-CoV-2 receptor binding domain …; test: BLI competition on His-tagged RBD, after 1st Ab 80
[6] = molecular target: T1, SARS-CoV-2 receptor binding domain …; test: BLI competition on His-tagged RBD, after 1st Ab 82
[7] = molecular target: T1, SARS-CoV-2 receptor binding domain …; test: BLI competition on His-tagged RBD, after 1st Ab 298
[8] = molecular target: T1, SARS-CoV-2 receptor binding domain …; test: BLI competition on His-tagged RBD, after 1st Ab 324
[9] = molecular target: T1, SARS-CoV-2 receptor binding domain …; test: BLI competition on His-tagged RBD, after 1st Ab 46
[10] = molecular target: T2, SARS-CoV-2 prefusion S ectodomain (Spike trimer), His-tagged (SARS-CoV-2, UniProt P0DTC2 14-1213); test: BLI, His-tagged Spike on Ni-NTA sensor
T2 construct: extracellular domain; also called SARS-CoV-2 Spike; S protein

B1: mAb 178 (antibody, V domains shown)
VH: QVQLVQSGAEVKKPGASVKVSCKASGYTFTDYHMHWVRQAPGQGLEWMGWINPNSGGTNYAQKFQGRVTMTRDTSTSTVYMELSSLRSEDTAVYYCARDISSWYEITKFDPWGQGTLVTVSS
VL: EIVMTQSPATLSVSPGERATLSCKASQSVSGTYLAWYQQKPGQAPRLLIYGASTRATGIPARFSGSGSGTEFTLTISSLQSEDFAVYYCLQTHSYPPTFGQGTKVEIKR
notes: also called IgG 178; Antibody 178
Binder B1 has a Kd [1] of 72 nM and a Kd [2] of 72 nM.

B2: mAb 52 (antibody, V domains shown)
VH: QVQLVQSGAEVKKPGSSVKVSCKASGYTFTSYGISWVRQAPGQGLEWMGGIIPMFGTTNYAQKFQGRVTITADKSTSTAYMELSSLRSEDTAVYYCARDRGDTIDYWGQGTLVTVSS
VL: DIQMTQSPSSLSASVGDRVTITCRASQGISNNLNWYQQKPGKAPKLLIYAASSLESGVPSRFSGSGSGTDFTLTISSLQPEDFATYYCQQGNGFPLTFGPGTKVDIKR
notes: also called IgG 52; Antibody 52
B2 was tested, and the “RBD binding of 2nd Ab after 1st Ab (heat map)” value (shortened to “RBD binding of 2nd Ab”) [3] was 1.5, the “RBD binding of 2nd Ab” value [4] was 0.4 and the “RBD binding of 2nd Ab” value [5] was 1.3. For the same binder, the “RBD binding of 2nd Ab” value [6] was 0.8, the “RBD binding of 2nd Ab” value [7] was 1.4 and the “RBD binding of 2nd Ab” value [8] was 1.5. For the same binder, the “RBD binding of 2nd Ab” value [9] was 0.5.

B3: mAb 160 (antibody, V domains shown)
VH: QVQLVQSGAEVKKPGASVKVSCKASGYTFTGHDMHWVRQAPGQGLEWMGIINPSGGSTSYAQKFQGRVTMTRDTSTSTVYMELSSLRSEDTAVYYCARANSLRYYYGMDVWGQGTMVTVSS
VL: DIQMTQSPSSLSASVGDRVTITCRASQSVSSWLAWYQQKPGKAPKLLIYAASSLQSGVPSRFSGSGSGTDFTLTISSLQPEDFATYYCQQGYTTPYTFGQGTKLEIKR
notes: also called IgG 160; Antibody 160
In the case of B3, the Kd [1] is reported as 7.7 nM and the Kd [2] is reported as 7.7 nM.

B4: mAb 46 (antibody, V domains shown)
VH: EVQLLESGGGLVQPGRSLRLSCAASGFTFSSYAMSWVRQAPGKGLEWVSTIYSGGSTYYADSVKGRFTISRDNSKNTLYLQMNSLRAEDTAVYYCARGDSRDAFDIWGQGTMVTVSS
VL: DIQMTQSPSSLSASVGDRVTITCRASQSISSWLAWYQQKPGKAPKLLIYDASNLETGVPSRFSGSGSGTDFTLTISSLQPEDFATYYCQQSYSTPFTFGPGTKVDIKR
notes: also called IgG 46; Antibody 46
With B4 the Kd [1] was 83 nM, the “RBD binding of 2nd Ab” value [3] was 1.7 and the “RBD binding of 2nd Ab” value [4] was 0.2. The “RBD binding of 2nd Ab” value [5] was 1.3, the “RBD binding of 2nd Ab” value [6] was 1.2 and the “RBD binding of 2nd Ab” value [7] was 1.7. The “RBD binding of 2nd Ab” value [8] was 1.7, the “RBD binding of 2nd Ab” value [9] was 0.2 and the Kd [2] was 83 nM.

B5: mAb 82 (antibody, V domains shown)
VH: QVQLVQSGAEVKKPGASVKVSCKASGGSFSTSAFYWVRQAPGQGLEWMGWINPYTGGTNYAQKFQGRVTMTRDTSTSTVYMELSSLRSEDTAVYYCARSRALYGSGSYFDYWGQGTLVTVSS
VL: DIQMTQSPSSLSASVGDRVTITCRASQVISNYLAWYQQKPGKAPKLLIYDASNLETGVPSRFSGSGSGTDFTLTISSLQPEDFATYYCQQSFSPPPTFGQGTRLEIKR
notes: also called IgG 82; Antibody 82
For B5, the Kd [1] was 206 nM, the “RBD binding of 2nd Ab” value [3] was 0.6 and the “RBD binding of 2nd Ab” value [4] was 0.6. The “RBD binding of 2nd Ab” value [5] was 0.6, the “RBD binding of 2nd Ab” value [6] was 0.4 and the “RBD binding of 2nd Ab” value [7] was 0.5. For the same binder, the “RBD binding of 2nd Ab” value [8] was 0.8, the “RBD binding of 2nd Ab” value [9] was 1.4 and the Kd [2] was 206 nM.

B6: mAb 56 (antibody, V domains shown)
VH: QVQLVQSGAEVKKPGASVKVSCKASGYTFTSYGISWVRQAPGQGLEWMGWISAYNGNTNYAQKLQGRVTMTRDTSTSTVYMELSSLRSEDTAVYYCARDIGPIDYWGQGTLVTVSS
VL: DIQMTQSPSSLSASVGDRVTITCRASQGISSYLAWYQQKPGKAPKLLIYDASNLQSGVPSRFSGSGSGTDFTLTISSLQPEDFATYYCQQANSFPSTFGQGTKVEIKR
notes: also called IgG 56; Antibody 56
Work on B6 yielded a Kd [1] of 23 nM and a Kd [2] of 23 nM.

B7: mAb 108 (antibody, V domains shown)
VH: QVQLVQSGAEVKKPGASVKVSCKASGYIFSRYAIHWVRQAPGQGLEWMGWMNPISGNTDYAPNFQGRVTMTRDTSTSTVYMELSSLRSEDTAVYYCAKDGSQLAYLVEYFQHWGQGTLVTVSS
VL: DIQMTQSPSSLSASVGDRVTITCRASQVITNNLAWYQQKPGKAPKLLIYDASTLETGVPSRFSGSGSGTDFTLTISSLQPEDFATYYCQQSYTFPYTFGQGTKVEIKR
B7 was tested, and the Kd [1] was 72 nM and the Kd [2] was 72 nM.

B8: mAb 158 (antibody, V domains shown)
VH: QVQLVQSGAEVKKPGASVKVSCKASGYTFTGYYMHWVRQAPGQGLEWMGWINPLNGGTNFAPKFQGRVTMTRDTSTSTVYMELSSLRSEDTAVYYCARDPGGSYSNDAFDIWGQGTLVTVSS
VL: DIQMTQSPSSLSASVGDRVTITCRASQSISRYLNWYQQKPGKAPKLLIYDASNLESGVPSRFSGSGSGTDFTLTISSLQPEDFATYYCQQANSFPLTFGGGTKVDIKR
notes: also called IgG 158; Antibody 158
With B8 the Kd [1] was 172 nM and the Kd [2] was 172 nM.

B9: mAb 64 (antibody, V domains shown)
VH: EVQLLESGGGLVQPGGSLRLSCAASGFPFSQHGMHWVRQAPGKGLEWVSAIDRSGSYIYYADSVKGRFTISRDNSKNTLYLQMNSLRAEDTAVYYCARDTYGGKVTYFDYWGQGTLVTVSS
VL: DIQMTQSPSSLSASVGDRVTITCRASQGISSHLAWYQQKPGKAPKLLIYDASNLETGVPSRFSGSGSGTDFTLTISSLQPEDFATYYCQQTYSTPWTFGQGTKVEIKR
notes: also called IgG 64; Antibody 64
B9 gave a Kd [1] of 97 nM and a Kd [2] of 97 nM.

B10: mAb 349 (antibody, V domains shown)
VH: EVQLLESGGGLVQPGGSLRLSCAASGFTFSNYGMHWVRQAPGKGLEWVSGISSAGSITNYADSVKGRFTISRDNSKNTLYLQMNSLRAEDTAVYYCAGNHAGTTVTSEYFQHWGQGTLVTVSS
VL: DIQMTQSPSSLSASVGDRVTITCRASQSISSWLAWYQQKPGKAPKLLIYDTSNLETGVPSRFSGSGSGTDFTLTISSLQPEDFATYYCQQSYTTPWTFGQGTRLEIKR
notes: also called IgG 349; Antibody 349
Work on B10 yielded a Kd [1] of 74 nM and a Kd [2] of 74 nM.

B11: mAb 324 (antibody, V domains shown)
VH: QVQLVQSGAEVKKPGASVKVSCKASGGTFNNYGISWVRQAPGQGLEWMGWMNPNSGNTGYAQKFQGRVTMTRDTSTSTVYMELSSLRSEDTAVYYCARVGDYGDYIVSPFDLWGRGTLVTVSS
VL: DIQMTQSPSSLSASVGDRVTITCRASQSITTYLNWYQQKPGKAPKLLIYDASNLETGVPSRFSGSGSGTDFTLTISSLQPEDFATYYCQQSYSTPPTFGQGTKVEIKR
notes: also called IgG 324; Antibody 324
With B11 the Kd [1] was 111 nM, the “RBD binding of 2nd Ab” value [3] was 0.3 and the “RBD binding of 2nd Ab” value [4] was 1. For the same binder, the “RBD binding of 2nd Ab” value [5] was 0.1, the “RBD binding of 2nd Ab” value [6] was 0.2 and the “RBD binding of 2nd Ab” value [7] was 0.2. For the same binder, the “RBD binding of 2nd Ab” value [8] was 0.4, the “RBD binding of 2nd Ab” value [9] was 1.2 and the Kd [2] was 111 nM.

B12: mAb 128 (antibody, V domains shown)
VH: QVQLVQSGAEVKKPGASVKVSCKASGYTFTHYYMHWVRQAPGQGLEWMGIINPSSSSASYSQKFQGRVTMTRDTSTSTVYMELSSLRSEDTAVYYCARDGRYGSGSYPFDYWGQGTLVTVSS
VL: DIQMTQSPSSLSASVGDRVTITCRASQNISRYLNWYQQKPGKAPKLLIYDASNLETGVPSRFSGSGSGTDFTLTISSLQPEDFATYYCQQANGFPPTFGQGTKLEIKR
In the case of B12, the Kd [1] is reported as 57 nM and the Kd [2] is reported as 57 nM.

B13: 4A8 IgG (antibody, V domains shown)
VH: EVQLVESGAEVKKPGASVKVSCKVSGYTLTELSMHWVRQAPGKGLEWMGGFDPEDGETMYAQKFQGRVTMTEDTSTDTAYMELSSLRSEDTAVYYCATSTAVAGTPDLFDYYYGMDVWGQGTTVTVSS
VL: EIVMTQSPLSSPVTLGQPASISCRSSQSLVHSDGNTYLSWLQQRPGQPPRLLIYKISNRFSGVPDRFSGSGAGTDFTLKISRVEAEDVGVYYCTQATQFPYTFGQGTKVDIK
notes: also called IgG 4A8
B13 gave a Kd [10] of 1.42 nM, a koff [10] of 0.000191 s⁻¹ and a kon [10] of 133000 M⁻¹ s⁻¹.

B14: mAb 254 (antibody, V domains shown)
VH: EVQLLESGGGLVQPGGSLRLSCAASGFTFSSSAMHWVRQAPGKGLEWVSAIGTGGDTYYADSVKGRFTISRDNSKNTLYLQMNSLRAEDTAVYYCAREGDGYNFYFDYWGQGTLVTVSS
VL: DIQMTQSPSSLSASVGDRVTITCRASQGISSYLAWYQQKPGKAPKLLIYDASSLQIGVPSRFSGSGSGTDFTLTISSLQPEDFATYYCLQSYSTPPWTFGQGTKVEIKR
notes: also called IgG 254; Antibody 254
For B14, the Kd [1] was 127 nM and the Kd [2] was 127 nM.

B15: mAb 120 (antibody, V domains shown)
VH: QVQLVQSGAEVKKPGASVKVSCKASGYTFTSYDINWVRQAPGQGLEWMGMIDPSGGSTSYAQKFQGRVTMTRDTSTSTVYMELSSLRSEDTAVYYCAKDFGGGTRYDYWYFDLWGRGTLVTVSS
VL: EIVMTQSPATLSVSPGERATLSCRASQSVSSRYLAWYQQKPGQAPRLLIYGASTRATGIPARFSGSGSGTEFTLTISSLQSEDFAVYYCQQYYTTPRTFGQGTRLEIKR
notes: also called IgG 120; Antibody 120
Binder B15 has a Kd [1] of 24 nM and a Kd [2] of 24 nM.
